The chains are these.
B1: C2orf65 (parent)
chain: QLDWDELETNQQHFHALCHSLLVS
B2: SLC19A2 (parent)
chain: FHHIPSTCQRVNGIKVQNGGIVTD
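Further: lentivirally expressed fusions sorted by FACS into six bins by GFP to DsRed ratio, PSI derived from sequencing read proportions per bin multiplied by bin number.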

In the first data set the parent is B1. Kind of data set: protein stability index of a GFP-peptide fusion (GPS, HEK-293T) (PSI 1-6); higher = more stable. As to conditions: c terminus: a fixed tail appended.
For the variant QLDWDELETNQQHFHALCHSLLVL, the protein stability index is 2.73.

Consider QLDWDELETNQQHFHALCHSLLVW, for which the protein stability index amounted to 1.38.

Take QLDWDELETNQQHFHALCHSLLVY: the protein stability index was 2.54.

Regarding QLDWDELETNQQHFHALCHSLLVR, the protein stability index came to 2.1.

Turning to QLDWDELETNQQHFHALCHSLLVI, the protein stability index was 2.99.

For the variant QLDWDELETNQQHFHALCHSLLVE, the protein stability index worked out at 2.11.

On to QLDWDELETNQQHFHALCHSLLVQ, for which the protein stability index was 2.04.

As for QLDWDELETNQQHFHALCHSLLVF, the protein stability index was determined as 1.7.

Take QLDWDELETNQQHFHALCHSLLVG: the protein stability index came out at 1.78.

As for QLDWDELETNQQHFHALCHSLLVM, the protein stability index came out at 2.02.

Consider QLDWDELETNQQHFHALCHSLLVH, for which the protein stability index is 2.33.

On to QLDWDELETNQQHFHALCHSLLVK, for which the protein stability index is 2.27.

For QLDWDELETNQQHFHALCHSLLVD, the protein stability index turned out to be 3.08.

For QLDWDELETNQQHFHALCHSLLVA, the protein stability index came to 2.11.

Turning to QLDWDELETNQQHFHALCHSLLVT, the protein stability index is 1.89.

QLDWDELETNQQHFHALCHSLLVN: the protein stability index was 2.25.

As for QLDWDELETNQQHFHALCHSLLVC, the protein stability index was 2.18.

As for QLDWDELETNQQHFHALCHSLLVP, the protein stability index was 2.5.

As for QLDWDELETNQQHFHALCHSLLVV, the protein stability index is 1.56.

In the case of QLDWDELETNQQHFHALCHSLLYS, the protein stability index amounted to 2.27.

QLDWDELETNQQHFHALCHSLLQS: the protein stability index amounted to 2.48.

Turning to QLDWDELETNQQHFHALCHSLLRS, the protein stability index worked out at 2.01.

Regarding QLDWDELETNQQHFHALCHSLLSS, the protein stability index worked out at 2.63.

Consider QLDWDELETNQQHFHALCHSLLTS, for which the protein stability index turned out to be 2.35.

Consider QLDWDELETNQQHFHALCHSLLWS, for which the protein stability index worked out at 1.57.

Another data set covers variants of B2. The data set is described as above. As to conditions: c terminus: a fixed tail appended.
Consider FHHNPSTCQRVNGIKVQNGGIVTD, for which the protein stability index was found to be 2.07.

For the variant FHHCPSTCQRVNGIKVQNGGIVTD, the protein stability index amounted to 1.67.

On to FHHSPSTCQRVNGIKVQNGGIVTD, for which the protein stability index was 3.05.

As for FHHHPSTCQRVNGIKVQNGGIVTD, the protein stability index stood at 1.85.

In the case of FHHTPSTCQRVNGIKVQNGGIVTD, the protein stability index was 2.

In the case of FHHEPSTCQRVNGIKVQNGGIVTD, the protein stability index came to 2.77.

Regarding FHHPPSTCQRVNGIKVQNGGIVTD, the protein stability index came to 2.37.

Consider FHHQPSTCQRVNGIKVQNGGIVTD, for which the protein stability index came out at 2.1.

Consider FHHKPSTCQRVNGIKVQNGGIVTD, for which the protein stability index is 1.94.

For FHHMPSTCQRVNGIKVQNGGIVTD, the protein stability index was determined as 2.01.

Consider FHHYPSTCQRVNGIKVQNGGIVTD, for which the protein stability index is 2.67.

Take FHHVPSTCQRVNGIKVQNGGIVTD: the protein stability index came to 1.67.

As to FHHRPSTCQRVNGIKVQNGGIVTD, the protein stability index amounted to 2.02.

With FHHGPSTCQRVNGIKVQNGGIVTD, the protein stability index was 2.48.

As for FHHLPSTCQRVNGIKVQNGGIVTD, the protein stability index turned out to be 2.37.

As for FHHDPSTCQRVNGIKVQNGGIVTD, the protein stability index was found to be 2.91.

In the case of FHHFPSTCQRVNGIKVQNGGIVTD, the protein stability index was 3.14.

Take FHHAPSTCQRVNGIKVQNGGIVTD: the protein stability index came to 2.11.

Take FHHIPSTPQRVNGIKVQNGGIVTD: the protein stability index worked out at 1.94.

As for FHHIPSTWQRVNGIKVQNGGIVTD, the protein stability index turned out to be 1.93.

In the case of FHHIPSTFQRVNGIKVQNGGIVTD, the protein stability index was 1.97.

In the case of FHHIPSTAQRVNGIKVQNGGIVTD, the protein stability index was found to be 2.36.

With FHHIPSTDQRVNGIKVQNGGIVTD, the protein stability index is 2.38.

As to FHHIPSTIQRVNGIKVQNGGIVTD, the protein stability index turned out to be 1.99.

Consider FHHIPSTSQRVNGIKVQNGGIVTD, for which the protein stability index stood at 2.27.

Turning to FHHIPSTRQRVNGIKVQNGGIVTD, the protein stability index came to 3.48.

FHHIPSTHQRVNGIKVQNGGIVTD: the protein stability index turned out to be 2.13.

Take FHHIPSTEQRVNGIKVQNGGIVTD: the protein stability index stood at 2.18.

With FHHIPSTQQRVNGIKVQNGGIVTD, the protein stability index was found to be 1.97.

Take FHHIPSTNQRVNGIKVQNGGIVTD: the protein stability index was found to be 2.69.

FHHIPSTMQRVNGIKVQNGGIVTD: the protein stability index was found to be 2.39.

As for FHHIPSTGQRVNGIKVQNGGIVTD, the protein stability index amounted to 2.07.

Take FHHIPSTYQRVNGIKVQNGGIVTD: the protein stability index was 1.86.

For the variant FHHIPSTLQRVNGIKVQNGGIVTD, the protein stability index was determined as 2.3.

For FHHIPSTVQRVNGIKVQNGGIVTD, the protein stability index came to 2.3.

With FHHIPSTKQRVNGIKVQNGGIVTD, the protein stability index amounted to 1.83.

For FHHIPSTTQRVNGIKVQNGGIVTD, the protein stability index was determined as 2.84.

Take PHHIPSTCQRVNGIKVQNGGIVTD: the protein stability index worked out at 3.84.

AHHIPSTCQRVNGIKVQNGGIVTD: the protein stability index was 3.95.

Consider RHHIPSTCQRVNGIKVQNGGIVTD, for which the protein stability index came out at 3.64.

For the variant VHHIPSTCQRVNGIKVQNGGIVTD, the protein stability index was found to be 4.14.

For the variant EHHIPSTCQRVNGIKVQNGGIVTD, the protein stability index was determined as 4.27.

For THHIPSTCQRVNGIKVQNGGIVTD, the protein stability index was determined as 3.66.

In the case of HHHIPSTCQRVNGIKVQNGGIVTD, the protein stability index came out at 3.53.

With GHHIPSTCQRVNGIKVQNGGIVTD, the protein stability index turned out to be 3.78.

Take MHHIPSTCQRVNGIKVQNGGIVTD: the protein stability index turned out to be 3.33.

For DHHIPSTCQRVNGIKVQNGGIVTD, the protein stability index amounted to 4.42.

Regarding QHHIPSTCQRVNGIKVQNGGIVTD, the protein stability index worked out at 3.71.

On to LHHIPSTCQRVNGIKVQNGGIVTD, for which the protein stability index is 2.81.

On to KHHIPSTCQRVNGIKVQNGGIVTD, for which the protein stability index is 2.78.

As for WHHIPSTCQRVNGIKVQNGGIVTD, the protein stability index was 1.85.

In the case of IHHIPSTCQRVNGIKVQNGGIVTD, the protein stability index is 3.46.

On to SHHIPSTCQRVNGIKVQNGGIVTD, for which the protein stability index came out at 3.48.

With CHHIPSTCQRVNGIKVQNGGIVTD, the protein stability index was 3.84.

As to NHHIPSTCQRVNGIKVQNGGIVTD, the protein stability index was 3.25.

Turning to YHHIPSTCQRVNGIKVQNGGIVTD, the protein stability index came out at 2.5.

As to FTHIPSTCQRVNGIKVQNGGIVTD, the protein stability index came to 2.4.

Turning to FLHIPSTCQRVNGIKVQNGGIVTD, the protein stability index turned out to be 2.21.

In the case of FNHIPSTCQRVNGIKVQNGGIVTD, the protein stability index was determined as 3.73.

On to FCHIPSTCQRVNGIKVQNGGIVTD, for which the protein stability index is 2.28.

FAHIPSTCQRVNGIKVQNGGIVTD: the protein stability index is 2.73.

As for FEHIPSTCQRVNGIKVQNGGIVTD, the protein stability index amounted to 3.65.

With FFHIPSTCQRVNGIKVQNGGIVTD, the protein stability index is 2.03.

As for FKHIPSTCQRVNGIKVQNGGIVTD, the protein stability index was determined as 2.52.

Take FSHIPSTCQRVNGIKVQNGGIVTD: the protein stability index turned out to be 3.17.

Take FVHIPSTCQRVNGIKVQNGGIVTD: the protein stability index amounted to 2.35.

As to FYHIPSTCQRVNGIKVQNGGIVTD, the protein stability index was 1.85.

Turning to FPHIPSTCQRVNGIKVQNGGIVTD, the protein stability index came out at 3.26.

On to FGHIPSTCQRVNGIKVQNGGIVTD, for which the protein stability index was 3.01.

(Values after the supplement of paper PMC10567573.)
